Laboratory results taken from US20140274782A1, “AFFINITY REAGENTS AND METHODS FOR DETECTION, PURIFICATION, AND PROTEOMIC ANALYSIS OF METHYLATED PROTEINS” (The Board of Trustees of the Leland Stanford Junior …, priority 2013, published 2014).

B1: DBR1 (protein, UniProt Q9UK59 1-544, looked up)
Lariat debranching enzyme: MRVAVAGCCHGELDKIYETLALAERRGPGPVDLLLCCGDFQAVRNEADLRCMAVPPKYRHMQTFYRYYSGEKKAPVLTLFIGGNHEASNHLQELPYGGWVAPNIYYLGLAGVVKYRGVRIGGISGIFKSHDYRKGHFECPPYNSSTIRSIYHVRNIEVYKLKQLKQPIDIFLSHDWPRSIYHYGNKKQLLKTKSFFRQEVENNTLGSPAASELLEHLKPTYWFSAHLHVKFAALMQHQAKDKGQTARATKFLALDKCLPHRDFLQILEIEHDPSAPDYLEYDIEWLTILRATDDLINVTGRLWNMPENNGLHARWDYSATEEGMKEVLEKLNHDLKVPCNFSVTAACYDPSKPQTQMQLIHRINPQTTEFCAQLGIIDINVRLQKSKEEHHVCGEYEEQDDVESNDSGEDQSEYNTDTSALSSINPDEIMLDEEEDEDSIVSAHSGMNTPSVEPSDQASEFSASFSDVRILPGSMIVSSDDTVDSTIDREGKPGGTVESGNGEDLTKVPLKRLSDEHEPEQRKKIKRRNQAIYAAVDDDDDDAA
B2: SRP68 (protein, UniProt Q9UHB9 1-627, looked up)
Signal recognition particle …: MAAEKQVPGGGGGGGSGGGGGSGGGGSGGGRGAGGEENKENERPSAGSKANKEFGDSLSLEILQIIKESQQQHGLRHGDFQRYRGYCSRRQRRLRKTLNFKMGNRHKFTGKKVTEELLTDNRYLLLVLMDAERAWSYAMQLKQEANTEPRKRFHLLSRLRKAVKHAEELERLCESNRVDAKTKLEAQAYTAYLSGMLRFEHQEWKAAIEAFNKCKTIYEKLASAFTEEQAVLYNQRVEEISPNIRYCAYNIGDQSAINELMQMRLRSGGTEGLLAEKLEALITQTRAKQAATMSEVEWRGRTVPVKIDKVRIFLLGLADNEAAIVQAESEETKERLFESMLSECRDAIQVVREELKPDQKQRDYILEGEPGKVSNLQYLHSYLTYIKLSTAIKRNENMAKGLQRALLQQQPEDDSKRSPRPQDLIRLYDIILQNLVELLQLPGLEEDKAFQKEIGLKTLVFKAYRCFFIAQSYVLVKKWSEALVLYDRVLKYANEVNSDAGAFKNSLKDLPDVQELITQVRSEKCSLQAAAILDANDAHQTETSSSQVKDNKPLVERFETFCLDPSLVTKQANLVHFPPGFQPIPCKPLFFDLALNHVAFPPLEDKLEQKTKSGLTGYIKGIFGFRS
B3: HNRNPH3 (protein, UniProt P31942 1-346, looked up)
Heterogeneous nuclear …: MDWVMKHNGPNDASDGTVRLRGLPFGCSKEEIVQFFQGLEIVPNGITLTMDYQGRSTGEAFVQFASKEIAENALGKHKERIGHRYIEIFRSSRSEIKGFYDPPRRLLGQRPGPYDRPIGGRGGYYGAGRGSMYDRMRRGGDGYDGGYGGFDDYGGYNNYGYGNDGFDDRMRDGRGMGGHGYGGAGDASSGFHGGHFVHMRGLPFRATENDIANFFSPLNPIRVHIDIGADGRATGEADVEFVTHEDAVAAMSKDKNNMQHRYIELFLNSTPGGGSGMGGSGMGGYGRDGMDNQGGYGSVGRMGMGNNYSGGYGTPDGLGGYGRGGGGSGGYYGQGGMSGGGWRGMY
B4: DUT (protein, UniProt P33316 70-252, looked up)
Deoxyuridine 5'-triphosphate …: ASTVGAAGWKGELPKAGGSPAPGPETPAISPSKRARPAEVGGMQLRFARLSEHATAPTRGSARAAGYDLYSAYDYTIPPMEKAVVKTDIQIALPSGCYGRVAPRSGLAAKHFIDVGAGVIDEDYRGNVGVVLFNFGKEKFEVKKGDRIAQLICERIFYPEIEEVQALDDTERGSGGFGSTGKN
B5: PPP1R10 (protein, UniProt Q96QC0 1-940, looked up)
Serine/threonine-protein …: MGSGPIDPKELLKGLDSFLNRDGEVKSVDGISKIFSLMKEARKMVSRCTYLNILLQTRSPEILVKFIDVGGYKLLNNWLTYSKTTNNIPLLQQILLTLQHLPLTVDHLKQNNTAKLVKQLSKSSEDEELRKLASVLVSDWMAVIRSQSSTQPAEKDKKKRKDEGKSRTTLPERPLTEVKAETRAEEAPEKKREKPKSLRTTAPSHAKFRSTGLELETPSLVPVKKNASTVVVSDKYNLKPIPLKRQSNVAAPGDATPPAEKKYKPLNTTPNATKEIKVKIIPPQPMEGLGFLDALNSAPVPGIKIKKKKKVLSPTAAKPSPFEGKTSTEPSTAKPSSPEPAPPSEAMDADRPGTPVPPVEVPELMDTASLEPGALDAKPVESPGDPNQLTRKGRKRKSVTWPEEGKLREYFYFELDETERVNVNKIKDFGEAAKREILSDRHAFETARRLSHDNMEEKVPWVCPRPLVLPSPLVTPGSNSQERYIQAEREKGILQELFLNKESPHEPDPEPYEPIPPKLIPLDEECSMDETPYVETLEPGGSGGSPDGAGGSKLPPVLANLMGSMGAGKGPQGPGGGGINVQEILTSIMGSPNSHPSEELLKQPDYSDKIKQMLVPHGLLGPGPIANGFPPGGPGGPKGMQHFPPGPGGPMPGPHGGPGGPVGPRLLGPPPPPRGGDPFWDGPGDPMRGGPMRGGPGPGPGPYHRGRGGRGGNEPPPPPPPFRGARGGRSGGGPPNGRGGPGGGMVGGGGHRPHEGPGGGMGNSSGHRPHEGPGGGMGSGHRPHEGPGGSMGGGGGHRPHEGPGGGISGGSGHRPHEGPGGGMGAGGGHRPHEGPGGSMGGSGGHRPHEGPGHGGPHGHRPHDVPGHRGHDHRGPPPHEHRGHDGPGHGGGGHRGHDGGHSHGGDMSNRPVCRHFMMKGNCRYENNCAFYHPGVNGPPLP

What was measured:
[1] = system: 3×MBT domain of L3MBTL1; test: Triple SILAC pull-down, 3xMBT/3xMBTD355N ratio (cytoplasmic, nuclear and chromatin fractions of 293T cells); format: binding, human; conditions: SILAC ratio, pull-down 3xMBT vs 3xMBTD355N; for 3xMBT/D355N UNC Heavy: experiment with UNC0638 in heavy SILAC media; for 3xMBT/D355N UNC Light: experiment with UNC0638 in light SILAC media;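 on all read-outs here: proteins quantified with MaxQuant, requiring at least two unique peptides and quantification in both label directions, normalized to the mean of proteins from a digested loading control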
[2] = target: T1, G9a and GLP (Homo sapiens, UniProt Q96KQ7+Q9H9B1); test: Triple SILAC pull-down after UNC0638 treatment of 293T cells, DMSO/UNC0638 ratio of protein captured by 3×MBT; format: cell-based; design: endogenous in cells; host or cells: HEK 293T; conditions: for Relative to UNC0638 UNC Heavy / Relative to UNC0638 UNC Light: SILAC ratio DMSO/UNC0638 of protein pulled down with 3xMBT; for Relative to UNC0638 UNC Heavy: UNC0638 in heavy SILAC media; for Relative to UNC0638 UNC Light: UNC0638 in light SILAC media; for Relative to UNC0638 Average: average of UNC Light and UNC Heavy experiments;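 on all read-outs here: mass spectrometry (Q-Exactive) SILAC quantitation, DMSO/UNC0638 ratio computed after subtracting 3×MBTD355N mutant pull-down background, only proteins with at least twofold 3×MBT over mutant signal considered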
T1 sequence (Q96KQ7 2-1210 limits assumed): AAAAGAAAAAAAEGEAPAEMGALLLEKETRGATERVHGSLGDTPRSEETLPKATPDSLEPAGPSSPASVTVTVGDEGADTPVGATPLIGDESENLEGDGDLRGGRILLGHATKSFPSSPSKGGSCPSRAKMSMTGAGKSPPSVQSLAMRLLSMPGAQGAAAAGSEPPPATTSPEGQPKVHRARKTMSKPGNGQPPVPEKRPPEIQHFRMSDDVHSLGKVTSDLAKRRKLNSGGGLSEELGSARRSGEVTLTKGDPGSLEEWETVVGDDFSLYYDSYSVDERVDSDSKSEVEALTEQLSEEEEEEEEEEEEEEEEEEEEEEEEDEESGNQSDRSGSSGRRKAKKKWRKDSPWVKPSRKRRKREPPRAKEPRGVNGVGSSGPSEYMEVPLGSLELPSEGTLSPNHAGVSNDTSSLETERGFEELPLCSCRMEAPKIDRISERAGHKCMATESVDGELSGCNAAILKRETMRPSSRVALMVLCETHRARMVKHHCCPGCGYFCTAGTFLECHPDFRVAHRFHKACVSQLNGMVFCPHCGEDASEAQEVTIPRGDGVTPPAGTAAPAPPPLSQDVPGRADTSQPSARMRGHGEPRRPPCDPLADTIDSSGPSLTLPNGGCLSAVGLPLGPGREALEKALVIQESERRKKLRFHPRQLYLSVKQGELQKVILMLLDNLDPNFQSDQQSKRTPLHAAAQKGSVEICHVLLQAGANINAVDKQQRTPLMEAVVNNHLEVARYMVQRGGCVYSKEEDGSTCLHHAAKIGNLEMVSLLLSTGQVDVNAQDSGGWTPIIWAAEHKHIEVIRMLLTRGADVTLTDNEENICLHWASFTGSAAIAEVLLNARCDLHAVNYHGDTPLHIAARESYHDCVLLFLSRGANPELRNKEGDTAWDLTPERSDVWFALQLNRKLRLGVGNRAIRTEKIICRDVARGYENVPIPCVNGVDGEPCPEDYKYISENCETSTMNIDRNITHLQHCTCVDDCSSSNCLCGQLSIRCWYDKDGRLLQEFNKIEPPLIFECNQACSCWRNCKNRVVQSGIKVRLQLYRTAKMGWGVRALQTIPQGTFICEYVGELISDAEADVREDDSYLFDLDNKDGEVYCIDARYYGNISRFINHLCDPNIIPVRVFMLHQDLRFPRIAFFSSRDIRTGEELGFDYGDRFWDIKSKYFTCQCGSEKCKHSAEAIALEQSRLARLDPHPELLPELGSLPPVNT
T1 sequence (Q9H9B1 2-1298 limits assumed): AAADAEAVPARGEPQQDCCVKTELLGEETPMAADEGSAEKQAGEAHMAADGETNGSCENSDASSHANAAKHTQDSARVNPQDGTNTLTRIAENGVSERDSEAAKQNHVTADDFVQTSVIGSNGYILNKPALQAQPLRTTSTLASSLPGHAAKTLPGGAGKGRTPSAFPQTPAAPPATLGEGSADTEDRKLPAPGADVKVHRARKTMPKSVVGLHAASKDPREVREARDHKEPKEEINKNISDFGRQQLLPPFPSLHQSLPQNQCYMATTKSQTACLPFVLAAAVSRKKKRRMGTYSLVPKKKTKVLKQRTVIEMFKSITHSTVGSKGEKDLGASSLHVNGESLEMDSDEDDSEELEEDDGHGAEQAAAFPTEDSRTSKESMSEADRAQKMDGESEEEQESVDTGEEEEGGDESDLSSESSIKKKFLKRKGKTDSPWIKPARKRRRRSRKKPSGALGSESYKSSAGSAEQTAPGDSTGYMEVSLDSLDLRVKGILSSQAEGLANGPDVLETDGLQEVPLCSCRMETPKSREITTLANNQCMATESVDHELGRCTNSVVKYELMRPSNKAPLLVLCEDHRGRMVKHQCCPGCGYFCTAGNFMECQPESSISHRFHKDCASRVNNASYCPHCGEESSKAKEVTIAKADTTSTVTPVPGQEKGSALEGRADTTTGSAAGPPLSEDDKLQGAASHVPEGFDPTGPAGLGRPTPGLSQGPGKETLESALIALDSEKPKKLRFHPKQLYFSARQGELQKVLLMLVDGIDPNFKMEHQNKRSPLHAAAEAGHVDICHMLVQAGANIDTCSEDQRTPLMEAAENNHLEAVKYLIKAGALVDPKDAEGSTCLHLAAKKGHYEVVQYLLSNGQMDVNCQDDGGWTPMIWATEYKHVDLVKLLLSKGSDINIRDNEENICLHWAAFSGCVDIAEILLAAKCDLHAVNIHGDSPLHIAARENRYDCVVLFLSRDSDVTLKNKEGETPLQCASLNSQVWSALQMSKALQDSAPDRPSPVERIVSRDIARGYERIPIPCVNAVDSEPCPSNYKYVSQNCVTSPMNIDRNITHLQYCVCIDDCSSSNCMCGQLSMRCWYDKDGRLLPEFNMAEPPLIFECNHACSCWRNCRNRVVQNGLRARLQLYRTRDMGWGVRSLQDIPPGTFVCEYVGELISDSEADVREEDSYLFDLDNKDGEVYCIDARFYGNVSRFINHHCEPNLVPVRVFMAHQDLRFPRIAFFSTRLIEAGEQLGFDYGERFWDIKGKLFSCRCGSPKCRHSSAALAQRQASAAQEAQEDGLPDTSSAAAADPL

| Molecule | 3xMBT/D355N UNC Heavy [1] [log base 2] | 3xMBT/D355N UNC Light [1] [log base 2] | Relative to UNC0638 UNC Heavy [2] [log base 2] | Relative to UNC0638 UNC Light [2] [log base 2] | Relative to UNC0638 Average [2] [log base 2] |
| --- | --- | --- | --- | --- | --- |
| B1 | 3.11 | 2.56 | 0.54 | 0.13 | 0.33 |
| B2 | 2.41 | 3.28 | −0.08 | 0.76 | 0.34 |
| B3 | 1.94 | 2.57 | 0.28 | 0.39 | 0.34 |
| B4 | 1.63 | 2.37 | 0.62 | 0.04 | 0.33 |
| B5 | 4.73 | 2.57 | 0.36 | 0.37 | 0.36 |
